Measured values as given in patent publication US20070014736A1, “Methods of delivering corticotroph-derived glycoprotein hormone” (priority 2005, published 2007).

Experiments:
NCI-H295R = assay: CRE-luciferase reporter assay in NCI-H295R adrenal cortex cells; format: cell-based, human
Excerpt: Summary: A human adrenal cortex cell line, NCI-H295R, was used to study signal transduction of CGH. NCI-H295R was transduced with recombinant adenovirus containing a reporter construct, a firefly luciferase gene under the control of cAMP response element (CRE) enhancer sequences. This assay system detects cAMP-mediated gene induction downstream of activation of Gs-coupled GPCR's (G-protein coupled receptors). […] Typically, CGH elicited a maximal response of 15-40-fold luciferase induction above control media.
NCI-H295R cells were obtained from the ATCC (CRL-2128, Manassas, Va.) and cultured in growth medium as follows: 1:1 mixture of Dulbecco's modified Eagle's medium and Ham's F12 medium with L-glutamine (D-MEM/F-12; GIBCO, cat.#11320-033) containing 25 mM HEPES buffer (GIBCO, Invitrogen, Carlsbad, Calif., cat.#15630-080), 1 mM sodium pyruvate (GIBCO, cat.#11360-070), 1% ITS+1 media supplement (Sigma St. Louis, Mo. cat#I2521) and 2.5% Nu-Se I (BD Biosciences, Lexington, Ky. cat.#355100). Cells were cultured at 37° C. in a 5% CO2 humidified incubator. […]
Promega's Luciferase Assay System (Promega, Madison, Wis., cat. #E1500) was used to process the treated cells. […] Luciferase activity was measured on a microplate luminometer (PerkinElmer Life Sciences, Inc., model LB 96V2R) following automated injection of luciferase assay substrate.

thymus = system: thymus; parameters: species or system mice; conditions: mouse, in vivo
Excerpt: Since the receptor for CGH, TSH-R, is expressed by the adrenal glands, there was concern that the anti-inflammatory effects observed might be an indirect effect of increasing endogenous corticosteroid production in CGH-treated mice. One well-established side effect of increasing either exogenous or endogenous corticosteroid levels is substantial atrophy of the thymus, as the developing T cells are induced to undergo apoptosis. Therefore, the thymuses of the CGH and Dex-treated mice in the DTH experiments were analyzed. […] Thus, CGH seems to be mediating its anti-inflammatory effects in a manner distinct from that of exgenous glucocorticoids like Dex.

[1] = system: differentiated 3T3 L1 adipocytes; assay: CRE-luciferase reporter assay in differentiated 3T3 L1 adipocytes; format: cell-based, murine
Excerpt: Differentiated murine 3T3 L1 adipocytes and primary human adipocytes were used to study signal transduction of CGH. 3T3 L1 fibroblasts were differentiated into adipocytes and the cells were transduced with recombinant adenovirus containing a reporter construct, a firefly luciferase gene under the control of cAMP response element (CRE) enhancer sequences. This assay system detects cAMP-mediated gene induction downstream of activation of Gs-coupled G-protein coupled receptors (GPCR's). […] In a separate experiment, undifferentiated 3T3 L1 fibroblasts were transduced with the recombinant adenovirus. […] In another experiment, human primary adipocytes were also transduced with the recombinant adenovirus containing a reporter construct. Treatment of the human adipocytes with isoproterenol produced a 17-fold induction of luciferase expression.
Cells were cultured at 37° C. in an 8% CO2 humidified incubator. Cells were seeded to collagen-coated 96-well plates (Becton Dickinson, cat. #356407) at a density of 5,000 cells per well. […] Luciferase activity was measured on a microplate luminometer (PerkinElmer Life Sciences, Inc., model LB 96V2R) following automated injection of 40 μl of luciferase assay substrate into each well. […]

B1: CGH: heterodimeric protein hormone comprised of alpha subunit GPHA2 and beta subunit GPHB5, recombinantly produced in CHO cells (protein)
chain 1: QEAVIPGCHLHPFNVTVRSDRQGTCQGSHVAQACVGHCESSAFPSRYSVLVASGYRHNITSVSQCCTISGLKKVKVQLQCVGSRREELEIFTARACQCDMCRLSRY
chain 2: ASSGNLRTFVGCAVREFTFLAKKPGCRGLRITTDACWGRCETWEKPILEPPYIEAHHRVCTYNETKQVTVKLPNCAPGVDPFYTYPVAIRCDCGACSTATTECETI
- maximal response, luciferase induction above control media (NCI-H295R; CRE-luciferase, 4 h): 15-40 fold
- induction of luciferase activity compared with 10 μM forskolin (NCI-H295R; dose-dependent): equal to or higher than that induced by 10 μM forskolin
- relative proportion of each thymocyte subset vs PBS-treated group (thymus): not significantly different
- induction of luciferase expression [1]: 27 fold
